We go through 72 sequences from the supplement of paper PMC10567573.

± gives the standard deviation.

The data set can be described thus: protein stability index of a GFP-peptide fusion (GPS, HEK-293T) (PSI 1-6); higher = more stable.
Setting [1] is: treatment: DMSO, c terminus: a fixed tail appended.
Where [2] appears, read: treatment: MLN4924 1 uM, 8 h, c terminus: a fixed tail appended.
[3] abbreviates: treatment: DMSO, c terminus: native.
[4] abbreviates: treatment: MLN4924 1 uM, 8 h, c terminus: native.
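Further: 24-mer peptide tiles fused after GFP, lentivirally expressed, FACS-sorted into six equal bins by GFP/DsRed ratio, decoded by Illumina sequencing, PSI is the read-weighted mean bin number.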

RSHLIGHQRTHSEEETYKCLECGK [ZNF449]: the protein stability index is, setting by setting: under setting [1], 4.26 ± 0.16; under setting [2], 4.39 ± 0.26.

RSLLPSTEYQKQLLAAQVQLQCSP [FBF1]: the protein stability index was found to be 3.46 ± 0.41 under setting [1] and 3.73 ± 0.18 under setting [2].

Turning to RTDSREQKLDAFLQPLSKPLSSQP [MLH1], the protein stability index by setting is: under setting [1], 4.32 ± 0.082; under setting [2], 4.44 ± 0.14.

Take RTDVGITHQHWQQFEPQLTLWDVF [RSAD1]: the protein stability index is, setting by setting: under setting [1], 2.25 ± 0.4; under setting [2], 2.38 ± 0.39.

As for RTSKSRGFAFITFENPADAKNAAK [RBMY1A1], the protein stability index was 3.26 ± 0.28 under setting [1] and 3.46 ± 0.43 under setting [2].

In turn, RVEDAFYTLVREIRQYRLKKISKE [KRAS] came in with a protein stability index under setting [1] of 2.3 ± 0.17.

With RVQSVDFMRTDPVCQKLLLDAMNY [KLHL14], the protein stability index was found to be 2.74 ± 0.2 under setting [1] and 2.64 ± 0.22 under setting [2].

In the case of RVQVQVVERAQQVAVQEQEIARRE [FLOT1], the protein stability index was found to be 5 ± 0.43 under setting [1] and 4.76 ± 0.67 under setting [2].

Take RWLMVKIFLILIVFFIIFVVFLA [STX5]: the protein stability index runs as follows: under setting [3], 4.3 ± 0.23; under setting [4], 4.31 ± 0.33.

As to RYFPAGNVVNEGFFEENVLPPKK [GLIPR2], the protein stability index under setting [3] turned out to be 4.72 ± 0.066 and the protein stability index under setting [4] came to 4.59 ± 0.38.

With RYHFATGVWHQMGTDGYMPRELAS [KLHDC10], the protein stability index reads like this: under setting [1], 2.6 ± 0.2; under setting [2], 2.41 ± 0.24.

As for RYILPVYGICREPVGLVMEYMETG [RIPK4], the protein stability index is, setting by setting: under setting [1], 2.12 ± 0.62; under setting [2], 2.69 ± 0.55.

RYLTFFHNYNILIATLRVALPSVM [MCOLN1] registered a protein stability index under setting [1] of 3.31 ± 0.65 and a protein stability index under setting [2] of 3.05 ± 0.54.

With RYPELDTPKLDCFLSGMEAAPRTL [TBX6], the protein stability index is, setting by setting: under setting [1], 3.5 ± 0.27; under setting [2], 3.58 ± 0.2.

Take SAENIPGCSSSGSCSQGSGILHYA [CRY1]: the protein stability index by setting is: under setting [1], 2.9 ± 0.33; under setting [2], 2.93 ± 0.2.

Turning to SAEYVGHLRATEKMKTRELHRESS [HDAC6], the protein stability index by setting is: under setting [1], 4.62 ± 0.36; under setting [2], 4.47 ± 0.4.

The sequence SARDASPTPSTDAEYPANGSGADR [NCK2] registered a protein stability index under setting [1] of 5.51 ± 0.17 and a protein stability index under setting [2] of 5.53 ± 0.25.

As to SARYVLPDEAARARLLQEGGGGVA [DUSP5], the protein stability index under setting [1] is 4.33 ± 0.19 and the protein stability index under setting [2] came to 4.13 ± 0.17.

Take SDFEWLKNELERDSKIVVPPLPGK [SNX12]: the protein stability index is 4.07 ± 0.32 under setting [1] and 4.13 ± 0.14 under setting [2].

As for SDFKTDKEGGQAGSGQRVPALEEA [ELOA2], the protein stability index runs as follows: under setting [1], 5.61 ± 0.18; under setting [2], 5.49 ± 0.22.

Regarding SDLNEVPVKELAALPKATILDLSC [LRRC59], the protein stability index is 3.96 ± 0.052 under setting [1] and 4.01 ± 0.3 under setting [2].

Take SDSMHIEDVEAVQKLQDVLHEALQ [ESRRG]: the protein stability index is, setting by setting: under setting [1], 3.42 ± 0.29; under setting [2], 3.54 ± 0.16.

Regarding SDYPSPDISPPIFRRGEKLRVISD [SLA], the protein stability index was 3.88 ± 0.3 under setting [1] and 4.2 ± 0.25 under setting [2].

As to SELIVHIFSFLPAPDRLRASASCS [FBXO33], the protein stability index was determined as 2.76 ± 0.14 under setting [1] and 1.94 ± 0.35 under setting [2].

SEMECQNQEYKMLLDIKTRLEQEI [KRT13] returned a protein stability index under setting [1] of 3.72 ± 0.26 and a protein stability index under setting [2] of 3.82 ± 0.32.

In the case of SENLEEETENIIAANHWVLPAAEF [TRIP13], the protein stability index turned out to be 4.8 ± 0.26 under setting [1] and 4.61 ± 0.17 under setting [2].

In turn, SFQIVLDPMLDFYSDKNAKLTKES [TENT5D] had a protein stability index under setting [1] of 2.91 ± 0.43 and a protein stability index under setting [2] of 3.09 ± 0.37.

In the case of SGHALRILIVDWDVHHGNGTQHMF [HDAC6], the protein stability index is 2.74 ± 0.44 under setting [1] and 3.02 ± 0.75 under setting [2].

On to SGKWTFQRDSKRWSRLEEFDVFSP [DLC1], for which the protein stability index turned out to be 2.46 ± 0.28 under setting [1] and 2.53 ± 0.34 under setting [2].

SGLLEELNAEAGHLDPGFLASDKT [C18orf25]: the protein stability index by setting is: under setting [1], 4.96 ± 0.18; under setting [2], 4.76 ± 0.12.

Regarding SHGANVNHTTVTNSTPLRAACFDG [FEM1B], the protein stability index reads like this: under setting [1], 4.02 ± 0.14; under setting [2], 4.25 ± 0.086.

In the case of SILKAMGKTKKDYQEASNLEQFVT [NECAB1], the protein stability index is 2.89 ± 0.41 under setting [1] and 3.04 ± 0.33 under setting [2].

Turning to SIVIFCLETLPEFRDEKDYPASTS [KCNA3], the protein stability index came out at 2.4 ± 0.54 under setting [1] and 2.19 ± 0.45 under setting [2].

Regarding SIYLVGGYSWSMGAYKSSTICYCP [KLHL14], the protein stability index reads like this: under setting [1], 2.87 ± 0.46; under setting [2], 2.53 ± 0.87.

In the case of SKVVVPPLPGKAFLRQLPFRGDDG [SNX3], the protein stability index is, setting by setting: under setting [1], 3.45 ± 0.17; under setting [2], 3.56 ± 0.21.

Consider SLPETFGDFWRMIWEQRSATVVMM [PTPRD], for which the protein stability index runs as follows: under setting [1], 2.69 ± 0.7; under setting [2], 2.43 ± 0.83.

As to SLQESVEDSLATVKVVLIPVGQEI [IQUB], the protein stability index is, setting by setting: under setting [1], 2.49 ± 0.53; under setting [2], 2.24 ± 0.46.

Consider SLYENDCIFDKFECVWNGSDSVIM [PPP2R2B], for which the protein stability index was 2.06 ± 0.71 under setting [1] and 2.07 ± 0.37 under setting [2].

In the case of SMISMGLFSIAPLIYGSMEMFPAA [JAGN1], the protein stability index was 3.08 ± 0.29 under setting [1] and 3.23 ± 0.32 under setting [2].

Sequence SMQYNGSYFDRGAKGGSRLCTPEG [DFFB] yielded a protein stability index under setting [1] of 2.98 ± 0.14 and a protein stability index under setting [2] of 3.35 ± 0.35.

Regarding SMRLLESKKGLSFFAFEHSEEYQQ [TCF25], the protein stability index reads like this: under setting [1], 3.35 ± 0.12; under setting [2], 3.3 ± 0.16.

Take SNLCCFIPGKVIDEIYRVLRYVNS [FBXO28]: the protein stability index came out at 2 ± 0.66 under setting [1] and 2.38 ± 0.26 under setting [2].

In turn, SNLIRHQRIHAAERLCMGVDCTEI [ZNF263] yielded a protein stability index under setting [1] of 3.17 ± 0.2 and a protein stability index under setting [2] of 3.18 ± 0.21.

Consider SPTSGKFRRGSGSACSLLCCCGRD [MCOLN1], for which the protein stability index is, setting by setting: under setting [1], 3.27 ± 0.15; under setting [2], 3.56 ± 0.41.

For SQWKDPALSQLICFCRESRYMDQW [GADD45A], the protein stability index was 2.19 ± 0.19 under setting [1] and 2.31 ± 0.23 under setting [2].

As for SRALALFDIQKIMQEKNPVHVIGV [ZNF8], the protein stability index runs as follows: under setting [1], 2.52 ± 0.27; under setting [2], 1.89 ± 0.39.

SRFRKAYKPEQPLVRLRGGAYIGE [LOXL2]: the protein stability index came to 3.16 ± 0.26 under setting [1] and 2.98 ± 0.39 under setting [2].

SRGELIPISPSTEVGGSGIGTPPS [MYBL2]: the protein stability index amounted to 4.74 ± 0.28 under setting [1] and 4.8 ± 0.15 under setting [2].

As for SRGSPVRVKREFEPASAREAPASV [USP39], the protein stability index is, setting by setting: under setting [1], 4.47 ± 0.32; under setting [2], 4.49 ± 0.35.

Consider SRNRDPGRLILSTIRLRPRQVLCE [PWWP2B], for which the protein stability index came out at 2.68 ± 0.18 under setting [1] and 3.04 ± 0.25 under setting [2].

On to SRPSAPFTEASMMMSLTKLADKEL [ESR2], for which the protein stability index amounted to 3.97 ± 0.4 under setting [1] and 3.97 ± 0.068 under setting [2].

As to SRSVEDDKEGHLVCRIGDWLQERY [CLK3], the protein stability index amounted to 3.41 ± 0.23 under setting [1] and 3.45 ± 0.2 under setting [2].

With SSARIPKCPWMEGGEMSPQVETSI [INTS4], the protein stability index under setting [1] was 3.9 ± 0.14 and the protein stability index under setting [2] amounted to 4.12 ± 0.1.

For the sequence SSDRSRDSSHERTESQLTPCIRNV [BTBD10], the protein stability index by setting is: under setting [1], 5.06 ± 0.065; under setting [2], 5 ± 0.2.

As to SSEHFEKLHEIFRGLHEDLQGVPE [VTI1B], the protein stability index turned out to be 4.11 ± 0.32 under setting [1] and 3.97 ± 0.12 under setting [2].

Take SSGEPVDYNVDIGIPLDGETEEL [MYOZ1]: the protein stability index was found to be 5.5 ± 0.21 under setting [3] and 5.23 ± 0.17 under setting [4].

On to SSQLAQMQCLISNVEAQLSEIRCD [KRT36], for which the protein stability index is, setting by setting: under setting [1], 3 ± 0.075; under setting [2], 3.1 ± 0.31.

On to SSRPENIPPKEFHFRHPKRSVSLS [BNIP3L], for which the protein stability index reads like this: under setting [1], 4.29 ± 0.35; under setting [2], 4.24 ± 0.051.

In the case of SSSYSVSSPRSVDSYSSTQHVPEE [ATF6], the protein stability index under setting [1] turned out to be 5.16 ± 0.14 and the protein stability index under setting [2] was 4.99 ± 0.15.

Regarding SSVCVQGRCIHAGCDRIIGSKKKF [ADAMTS4], the protein stability index was 3.57 ± 0.26 under setting [1] and 3.22 ± 0.38 under setting [2].

Turning to SSVSDVKFSHSGRYMLTRDYLTVK [PPP2R2C], the protein stability index under setting [1] is 2.88 ± 0.24 and the protein stability index under setting [2] is 2.87 ± 0.39.

In the case of STDTAVTNEWEKRLSTSPVRLAAR [EPB41L3], the protein stability index was determined as 4.3 ± 0.26 under setting [1] and 4.44 ± 0.18 under setting [2].

With STFSTNYRSLGSVQAPSYGARPVS [KRT18], the protein stability index was determined as 3.53 ± 0.16 under setting [1] and 3.61 ± 0.2 under setting [2].

For the sequence STLLGEMDLLTQSLGVDTLPPPDP [APBB1IP], the protein stability index by setting is: under setting [1], 3.79 ± 0.42; under setting [2], 4.03 ± 0.41.

Regarding STLPRSGSSGGQQPSGMKEGVKRY [CHCHD6], the protein stability index worked out at 4.49 ± 0.35 under setting [1] and 4.8 ± 0.29 under setting [2].

On to STLPSLREEEEQVRAHAPRGNAPP [KCNG1], for which the protein stability index was determined as 4.43 ± 0.23 under setting [1] and 4.91 ± 0.35 under setting [2].

With STPLSPAYISLVEEEDQHMKLSLG [KLHL13], the protein stability index was determined as 4.27 ± 0.16 under setting [1] and 4.28 ± 0.19 under setting [2].

As for STPRPSITPTKKIELDRTIMPDGT [C2CD2L], the protein stability index is 4.76 ± 0.24 under setting [1] and 4.87 ± 0.17 under setting [2].

STVKDCATIFALSTMTSSVQIYNL [ATL3] returned a protein stability index under setting [1] of 3.08 ± 0.68 and a protein stability index under setting [2] of 3.25 ± 0.59.

SVHVPGPHAMTIQELVDYVNARQK [PTPN9] returned a protein stability index under setting [1] of 3.49 ± 0.34 and a protein stability index under setting [2] of 3.47 ± 0.28.

As to SVIVLDINDNAPTFQSSVLRVGIP [PCDHGC5], the protein stability index was found to be 2.18 ± 0.11 under setting [1] and 2.21 ± 0.081 under setting [2].

With SVRRSESWARPRPDEERPLRRPRP [RASAL3], the protein stability index amounted to 4.92 ± 0.096 under setting [1] and 4.68 ± 0.29 under setting [2].
